Laboratory results from patent US20240336657A1, “G-ALPHA-S PEPTIDE INHIBITORS AND USES THEREOF” (The Regents of the University of California, priority 2021, published 2024).
Positions of bridges follow the written chain, without caps; N, C: chain ends. Non-standard residues stand in square brackets, D forms with d.

Molecular target: T1, Biotinylated His/Avi-tagged Gαs used in the RaPID selection, GppNHp-bound (human, UniProt P63092 7-394, biotin on the Avi tag (BirA co-expressed))
T1 construct: Immobilized on streptavidin magnetic beads
Experiment: RaPID comparison selection: peptide-mRNA-cDNA complexes on Gαs-immobilized streptavidin beads, qPCR and sequencing

T1 sequence (P63092 other isoform, or with tags, fused parts or gaps limits assumed): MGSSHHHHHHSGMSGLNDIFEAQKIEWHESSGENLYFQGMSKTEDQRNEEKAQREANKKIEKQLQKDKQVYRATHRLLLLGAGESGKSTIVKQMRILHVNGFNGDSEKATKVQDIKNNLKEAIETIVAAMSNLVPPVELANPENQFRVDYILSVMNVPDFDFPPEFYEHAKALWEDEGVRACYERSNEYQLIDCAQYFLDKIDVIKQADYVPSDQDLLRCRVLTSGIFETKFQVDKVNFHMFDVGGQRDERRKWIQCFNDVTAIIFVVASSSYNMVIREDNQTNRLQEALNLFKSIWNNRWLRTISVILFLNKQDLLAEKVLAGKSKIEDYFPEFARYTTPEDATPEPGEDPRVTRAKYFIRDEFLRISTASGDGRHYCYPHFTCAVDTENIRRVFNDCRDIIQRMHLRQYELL

Binder | fold selectivity for GppNHp-bound over GDP-bound Gαs [fold]
{CH2CO}-[dY]SWPNQFDWFIELCG-NH2 (thioether N-14; SMILES CC[C@H](C)[C@@H]1NC(=O)[C@H](Cc2ccccc2)NC(=O)[C@H](Cc2c[nH]c3ccccc23)NC(=O)[C@H](CC(=O)O)NC(=O)[C@H](Cc2ccccc2)NC(=O)[C@H](CCC(N)=O)NC(=O)[C@H](CC(N)=O)NC(=O)[C@@H]2CCCN2C(=O)[C@H](Cc2c[nH]c3ccccc23)NC(=O)[C@H](CO)NC(=O)[C@@H](Cc2ccc(O)cc2)NC(=O)CSC[C@@H](C(=O)NCC(N)=O)NC(=O)[C@H](CC(C)C)NC(=O)[C@H](CCC(=O)O)NC1=O) [GN7] | > 100
{CH2CO}-[dY]QYTYPYLVIDWTCG-NH2 (thioether N-14; SMILES CC[C@H](C)[C@@H]1NC(=O)[C@H](C(C)C)NC(=O)[C@H](CC(C)C)NC(=O)[C@H](Cc2ccc(O)cc2)NC(=O)[C@@H]2CCCN2C(=O)[C@H](Cc2ccc(O)cc2)NC(=O)[C@H]([C@@H](C)O)NC(=O)[C@H](Cc2ccc(O)cc2)NC(=O)[C@H](CCC(N)=O)NC(=O)[C@@H](Cc2ccc(O)cc2)NC(=O)CSC[C@@H](C(=O)NCC(N)=O)NC(=O)[C@H]([C@@H](C)O)NC(=O)[C@H](Cc2c[nH]c3ccccc23)NC(=O)[C@H](CC(=O)O)NC1=O) [GN8] | > 100
{CH2CO}-[dY]QFIEVWPFYLPCG-NH2 (thioether N-13; SMILES CC[C@H](C)[C@@H]1NC(=O)[C@H](Cc2ccccc2)NC(=O)[C@H](CCC(N)=O)NC(=O)[C@@H](Cc2ccc(O)cc2)NC(=O)CSC[C@@H](C(=O)NCC(N)=O)NC(=O)[C@@H]2CCCN2C(=O)[C@H](CC(C)C)NC(=O)[C@H](Cc2ccc(O)cc2)NC(=O)[C@H](Cc2ccccc2)NC(=O)[C@@H]2CCCN2C(=O)[C@H](Cc2c[nH]c3ccccc23)NC(=O)[C@H](C(C)C)NC(=O)[C@H](CCC(=O)O)NC1=O, the number is its rank in the selection) [GN1] | > 100
{CH2CO}-[dY]LTNWGVYWDQYWCG-NH2 (thioether N-14; SMILES CC(C)C[C@@H]1NC(=O)[C@@H](Cc2ccc(O)cc2)NC(=O)CSC[C@@H](C(=O)NCC(N)=O)NC(=O)[C@H](Cc2c[nH]c3ccccc23)NC(=O)[C@H](Cc2ccc(O)cc2)NC(=O)[C@H](CCC(N)=O)NC(=O)[C@H](CC(=O)O)NC(=O)[C@H](Cc2c[nH]c3ccccc23)NC(=O)[C@H](Cc2ccc(O)cc2)NC(=O)[C@H](C(C)C)NC(=O)CNC(=O)[C@H](Cc2c[nH]c3ccccc23)NC(=O)[C@H](CC(N)=O)NC(=O)[C@H]([C@@H](C)O)NC1=O) [GN11] | > 100
Ac-[dY]CFYEVWPYYLPCG-NH2 (thioether (positions not given here); also: thioether partner Cys2 or Cys13 not settled) [GN6] | > 100
{CH2CO}-[dY]NWSNQFDWFLDLCG-NH2 (thioether N-14; SMILES CC(C)C[C@@H]1NC(=O)[C@H](CC(=O)O)NC(=O)[C@H](CC(C)C)NC(=O)[C@H](Cc2ccccc2)NC(=O)[C@H](Cc2c[nH]c3ccccc23)NC(=O)[C@H](CC(=O)O)NC(=O)[C@H](Cc2ccccc2)NC(=O)[C@H](CCC(N)=O)NC(=O)[C@H](CC(N)=O)NC(=O)[C@H](CO)NC(=O)[C@H](Cc2c[nH]c3ccccc23)NC(=O)[C@H](CC(N)=O)NC(=O)[C@@H](Cc2ccc(O)cc2)NC(=O)CSC[C@@H](C(=O)NCC(N)=O)NC1=O) [GN3] | > 100
